In publication PMC5038921 (Journal of biomolecular screening, 2016):

How the values were obtained:
[1] = biological target: T1, RMI core complex (RMI1 OB2 domain with RMI2) (Homo sapiens, UniProt Q96E14+Q9H9A7); assay: ITC; format: binding
T1 sequence (Q9H9A7 473-625 limits assumed): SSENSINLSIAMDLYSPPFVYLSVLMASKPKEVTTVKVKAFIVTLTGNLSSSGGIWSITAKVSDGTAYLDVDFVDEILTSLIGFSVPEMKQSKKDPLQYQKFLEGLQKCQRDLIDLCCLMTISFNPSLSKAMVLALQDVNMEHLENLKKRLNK
T1 sequence (Q96E14 1-147): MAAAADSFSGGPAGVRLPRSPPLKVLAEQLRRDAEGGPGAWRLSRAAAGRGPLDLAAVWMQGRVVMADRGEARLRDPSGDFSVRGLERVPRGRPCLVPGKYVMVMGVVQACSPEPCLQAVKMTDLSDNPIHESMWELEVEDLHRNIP

[2] = biological target: RMI core complex (OB2 domain of RMI1 and the entirety of RMI2) (UniProt Q96E14); assay: fluorescence polarisation
[3] = biological target: RMI core complex with a N-terminal 6X-His tagged RMI2 (UniProt Q96E14); assay: AlphaScreen or HTRF
[4] = biological target: F-MM2 MM2 (Homo sapiens) (UniProt Q8IYD8); assay: FP; details: cited from earlier work

Compound: CCOC(=O)N1CCN(C(c2ccccn2)c2c(-c3ccccc3)n(O)c3ccccc23)CC1 (stereo not shown) [PIP-199]
- Kd [1]: 3400 ± 1000 nM

Compound: MM2 peptide from FANCM (unlabeled)
- IC50 [2]: 510 nM
- IC50 [3]: 180 nM

Compound: RMI core complex core complex (from UniProt Q9H9A7)
- Kd [4]: < 5 nM
